The record followed here is publication PMC9634968.

The chains are these.
B1: CXCR4: N15A (protein)
parent chain: MSIPLPLLQIYTSDNYTEEMGSGDYDSMKEPCFREENANFNKIFLPTIYSIIFLTGIVGNGLVILVMGYQKKLRSMTDKYRLHLSVADLLFVITLPFWAVDAVANWYFGNFLCKAVHVIYTVNLYSSVLILAFISLDRYLAIVHATNSQRPRKLLAEKVVYVGVWIPALLLTIPDFIFANVSEADDRYICDRFYPNDLWVVVFQFQHIMVGLILPGIVILSCYCIIISKLSHSKGHQKRKALKTTVILILAFFACWLPYYIGISIDSFILLEIIKQGCEFENTVHKWISITEALAFFHCCLNPILYAFLGAKFKTSAQHALTSVSRGSSLKILSKGKRGGHSSVSTESESSSFHSS
B2: CXCR4: N15A/N180A (protein)
parent chain: MSIPLPLLQIYTSDNYTEEMGSGDYDSMKEPCFREENANFNKIFLPTIYSIIFLTGIVGNGLVILVMGYQKKLRSMTDKYRLHLSVADLLFVITLPFWAVDAVANWYFGNFLCKAVHVIYTVNLYSSVLILAFISLDRYLAIVHATNSQRPRKLLAEKVVYVGVWIPALLLTIPDFIFANVSEADDRYICDRFYPNDLWVVVFQFQHIMVGLILPGIVILSCYCIIISKLSHSKGHQKRKALKTTVILILAFFACWLPYYIGISIDSFILLEIIKQGCEFENTVHKWISITEALAFFHCCLNPILYAFLGAKFKTSAQHALTSVSRGSSLKILSKGKRGGHSSVSTESESSSFHSS
B3: CXCR4: N180A (protein)
parent chain: MSIPLPLLQIYTSDNYTEEMGSGDYDSMKEPCFREENANFNKIFLPTIYSIIFLTGIVGNGLVILVMGYQKKLRSMTDKYRLHLSVADLLFVITLPFWAVDAVANWYFGNFLCKAVHVIYTVNLYSSVLILAFISLDRYLAIVHATNSQRPRKLLAEKVVYVGVWIPALLLTIPDFIFANVSEADDRYICDRFYPNDLWVVVFQFQHIMVGLILPGIVILSCYCIIISKLSHSKGHQKRKALKTTVILILAFFACWLPYYIGISIDSFILLEIIKQGCEFENTVHKWISITEALAFFHCCLNPILYAFLGAKFKTSAQHALTSVSRGSSLKILSKGKRGGHSSVSTESESSSFHSS

The nature of this data set: Western blot after 125 nM CXCL12, 30 min, HEK 293T. The note with it: glycan lost; control: wild type. In general terms: Immunoblotting shows a protein as a band on a membrane.
Consider B1, for which the degradation_or_half_life result is on record as “increases”.

Take B2: the degradation_or_half_life entry is “increases”.

On to B3, for which the degradation_or_half_life result is “no change”.
